Test results taken from paper PMC5001606.
Positions count from the first letter of the chain named. In names and notes the source's numbering stands.

Experiments:
Assay in all cases: MST
HiNmlR wild-type = target: T1, HiNmlR wild-type (Haemophilus influenzae Rd KW20, UniProt P44558 1-135)
T1 sequence: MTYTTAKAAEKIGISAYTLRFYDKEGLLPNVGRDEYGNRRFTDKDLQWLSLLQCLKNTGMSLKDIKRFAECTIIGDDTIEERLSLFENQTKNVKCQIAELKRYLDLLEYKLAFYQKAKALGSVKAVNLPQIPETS

HiNmlR C54A/C95A = target: T2, HiNmlR C54A/C95A (Haemophilus influenzae Rd KW20, UniProt P44558 1-135, C54A;C95A)
T2 sequence: T1 sequence with C54A, C95A

HiNmlR C54A/C71A/C95A = target: T3, HiNmlR C54A/C71A/C95A (Haemophilus influenzae Rd KW20, UniProt P44558 1-135, C54A;C71A;C95A)
T3 sequence: T1 sequence with C54A, C71A, C95A

HiNmlR C71A/C95A = target: T4, HiNmlR C71A/C95A (Haemophilus influenzae Rd KW20, UniProt P44558 1-135, C71A;C95A)
T4 sequence: T1 sequence with C71A, C95A

HiNmlR C54A = target: T5, HiNmlR C54A (Haemophilus influenzae Rd KW20, UniProt P44558 1-135, C54A)
T5 sequence: T1 sequence with C54A

B1: C5G 24-bp (dsDNA)
DNA 1: CACTTTAGAGTTCACTGTAAAGCA
DNA 2: TGCTTTACAGTGAACTCTAAAGTG
HiNmlR wild-type
  Kd: 252 ± 17.4 nM

B2: PadhC-estD/nmlR IR wt 24-bp (dsDNA)
DNA 1: CACTTTAGAGTTCACTCTAAAGCA
DNA 2: TGCTTTAGAGTGAACTCTAAAGTG
HiNmlR C54A/C95A
  Kd: 47.4 ± 6.7 nM
HiNmlR C54A/C71A/C95A
  Kd: 55.3 ± 5.3 nM
HiNmlR C71A/C95A
  Kd: 33 ± 3.4 nM
HiNmlR wild-type
  Kd: 25.2 ± 2.3 nM
HiNmlR C54A
  Kd: 91.1 ± 15.6 nM

B3: G5'C 24-bp (dsDNA)
DNA 1: CACTTTACAGTTCACTCTAAAGCA
DNA 2: TGCTTTAGAGTGAACTGTAAAGTG
HiNmlR wild-type
  Kd: 245 ± 26.1 nM

B4: G5'C/C5G 24-bp (dsDNA)
DNA 1: CACTTTACAGTTCACTGTAAAGCA
DNA 2: TGCTTTACAGTGAACTGTAAAGTG
HiNmlR wild-type
  Kd: 4690 ± 311 nM
